Measured values reported in US20120316071A1.

Columns and labels:
[1] = molecular target: rHuman ErbB2/Fc Chimera, CF (R&D Systems Cat#1129-ER) (human) (UniProt P04626); test: ECL multispot (MSD) binding assay, antigen spotted on plate, Fab 0.04 uM
[2] = molecular target: Recombinant Human DLL4 (R&D Systems Cat#1506-D4/CF) (human) (UniProt Q9NR61); test: ELISA, DLL4 coated on plate, Fab at […]
[3] = molecular target: Recombinant Human DLL4 (R&D Systems Cat#1506-D4/CF) (human) (UniProt Q9NR61); test: ELISA, DLL4 coated on plate, Fab at 0.74 nM
[4] = molecular target: Recombinant Human DLL4 (R&D Systems Cat#1506-D4/CF) (human) (UniProt Q9NR61); test: ELISA, DLL4 coated on plate, Fab at 20 nM
[5] = molecular target: Recombinant Human DLL4 (R&D Systems Cat#1506-D4/CF) (human) (UniProt Q9NR61); test: ELISA, DLL4 coated on plate, Fab at 2.22 nM
[6] = molecular target: Recombinant Human DLL4 (R&D Systems Cat#1506-D4/CF) (human) (UniProt Q9NR61); test: ECL (MSD) binding assay, immobilised DLL4
[7] = molecular target: Recombinant Human DLL4 (delta-like protein 4) (human) (UniProt Q9NR61); test: ELISA, DLL4 coated on plate, Fab at 100 nM (2-fold dilution series), absorbance at 450 nm
[8] = molecular target: Recombinant Human DLL4 (delta-like protein 4) (human) (UniProt Q9NR61); test: ELISA, DLL4 coated on plate, Fab at 25 nM (2-fold dilution series), absorbance at 450 nm
[9] = molecular target: Recombinant Human DLL4 (delta-like protein 4) (human) (UniProt Q9NR61); test: ELISA, DLL4 coated on plate, Fab at 12.5 nM (2-fold dilution series), absorbance at 450 nm
[10] = molecular target: Recombinant Human DLL4 (delta-like protein 4) (human) (UniProt Q9NR61); test: ELISA, DLL4 coated on plate, Fab at 50 nM (2-fold dilution series), absorbance at 450 nm
[11] = molecular target: human Delta-like ligand 4 (DLL4), full-length, expressed on CHO cells (human) (UniProt Q9NR61); test: cell-based or functional assay
[12] = molecular target: rHuman Notch-1/Fc Chimera, CF (R&D Systems Cat#3647-TK) (human) (UniProt P46531); test: ECL multispot (MSD) assay, antigen spotted on plate, 20 nM Fab

B1: Fab VH5-51_IGHD5-18*01>3_IGHJ4*01 G100K/G104T (H:KT) & V3-4_IGLJ1*01 L92A (Fab, V domains shown)
VH: EVQLVQSGAEVKKPGESLKISCKGSGYSFTSYWIGWVRQMPGKGLEWMGIIYPGDSDTRYSPSFQGQVTISADKSISTAYLQWSSLKASDTAMYYCARRKYSYTYDYFDYWGQGTLVTVSS
VL: QTVVTQEPSFSVSPGGTVTLTCGLSSGSVSTSYYPSWYQQTPGQAPRTLIYSTNTRSSGVPDRFSGSILGNKAALTITGAQADDESDYYCVAYMGSGISYVFGTGTKVTVL
ECL signal [1]: 1370

B2: Fab VH5-51_IGHD5-18*01>3_IGHJ4*01 G100K/G104T G24A/S28R/G35V (H:KT ARV) & V3-4_IGLJ1*01 M94R/S96M (L:RM) (Fab, V domains shown)
VH: EVQLVQSGAEVKKPGESLKISCKASGYRFTSYWIVWVRQMPGKGLEWMGIIYPGDSDTRYSPSFQGQVTISADKSISTAYLQWSSLKASDTAMYYCARRKYSYTYDYFDYWGQGTLVTVSS
VL: QTVVTQEPSFSVSPGGTVTLTCGLSSGSVSTSYYPSWYQQTPGQAPRTLIYSTNTRSSGVPDRFSGSILGNKAALTITGAQADDESDYYCVLYRGMGISYVFGTGTKVTVL
ELISA signal [2]: 0.034 | ELISA signal [3]: 0 | ELISA signal [4]: 0.006 | ELISA signal [5]: 0

B3: Fab VH5-51_IGHD5-18*01>3_IGHJ4*01 G100K/G104T S28R & V3-4_IGLJ1*01 M94R/S96M (L:RM) (Fab, V domains shown)
VH: EVQLVQSGAEVKKPGESLKISCKGSGYRFTSYWIGWVRQMPGKGLEWMGIIYPGDSDTRYSPSFQGQVTISADKSISTAYLQWSSLKASDTAMYYCARRKYSYTYDYFDYWGQGTLVTVSS
VL: QTVVTQEPSFSVSPGGTVTLTCGLSSGSVSTSYYPSWYQQTPGQAPRTLIYSTNTRSSGVPDRFSGSILGNKAALTITGAQADDESDYYCVLYRGMGISYVFGTGTKVTVL
ECL signal [6]: 530

B4: Fab VH5-51_IGHD5-18*01>3_IGHJ4*01 G100K/G104T G24L/S28R/G35V D109Q & V3-4_IGLJ1*01 (wildtype) (Fab, V domains shown)
VH: EVQLVQSGAEVKKPGESLKISCKTSGYRFTSYWIVWVRQMPGKGLEWMGIIYPGDSDTRYSPSFQGQVTISADKSISTAYLQWSSLKASDTAMYYCARRKYSYTYDYFQYWGQGTLVTVSS
VL: QTVVTQEPSFSVSPGGTVTLTCGLSSGSVSTSYYPSWYQQTPGQAPRTLIYSTNTRSSGVPDRFSGSILGNKAALTITGAQADDESDYYCVLYMGSGISYVFGTGTKVTVL
ELISA signal [7]: 0.3 | ELISA signal [8]: 0.22 | ELISA signal [9]: 0.24 | ELISA signal [10]: 0.25

B5: Fab VH5-51_IGHD5-18*01>3_IGHJ4*01 G100K/G104T G24L/S28R/G35V & V3-4_IGLJ1*01 M94R/S96M (L:RM) (Fab, V domains shown)
VH: EVQLVQSGAEVKKPGESLKISCKLSGYRFTSYWIVWVRQMPGKGLEWMGIIYPGDSDTRYSPSFQGQVTISADKSISTAYLQWSSLKASDTAMYYCARRKYSYTYDYFDYWGQGTLVTVSS
VL: QTVVTQEPSFSVSPGGTVTLTCGLSSGSVSTSYYPSWYQQTPGQAPRTLIYSTNTRSSGVPDRFSGSILGNKAALTITGAQADDESDYYCVLYRGMGISYVFGTGTKVTVL
ECL signal [6]: 889

B6: Fab VH5-51_IGHD5-18*01>3_IGHJ4*01 G100K/G104T G24L/S28R/G35V Y105H & V3-4_IGLJ1*01 (wildtype) (Fab, V domains shown)
VH: EVQLVQSGAEVKKPGESLKISCKTSGYRFTSYWIVWVRQMPGKGLEWMGIIYPGDSDTRYSPSFQGQVTISADKSISTAYLQWSSLKASDTAMYYCARRKYSYTHDYFDYWGQGTLVTVSS
VL: QTVVTQEPSFSVSPGGTVTLTCGLSSGSVSTSYYPSWYQQTPGQAPRTLIYSTNTRSSGVPDRFSGSILGNKAALTITGAQADDESDYYCVLYMGSGISYVFGTGTKVTVL
ELISA signal [7]: 0.23 | ELISA signal [8]: 0.19 | ELISA signal [9]: 0.21 | ELISA signal [10]: 0.2

B7: Fab VH5-51_IGHD5-18*01>3_IGHJ4*01 G100K/G104T G24A/S28R/G35V & V3-4_IGLJ1*01 M94R/S96M (L:RM) (Fab, V domains shown)
VH: EVQLVQSGAEVKKPGESLKISCKASGYRFTSYWIVWVRQMPGKGLEWMGIIYPGDSDTRYSPSFQGQVTISADKSISTAYLQWSSLKASDTAMYYCARRKYSYTYDYFDYWGQGTLVTVSS
VL: QTVVTQEPSFSVSPGGTVTLTCGLSSGSVSTSYYPSWYQQTPGQAPRTLIYSTNTRSSGVPDRFSGSILGNKAALTITGAQADDESDYYCVLYRGMGISYVFGTGTKVTVL
ECL signal [6]: 1200

B8: Fab VH5-51_IGHD5-18*01>3_IGHJ4*01 G100K/G104T G24A/S28R/G35V Y107F & V3-4_IGLJ1*01 (wildtype) (Fab, V domains shown)
VH: EVQLVQSGAEVKKPGESLKISCKTSGYRFTSYWIVWVRQMPGKGLEWMGIIYPGDSDTRYSPSFQGQVTISADKSISTAYLQWSSLKASDTAMYYCARRKYSYTYDFFDYWGQGTLVTVSS
VL: QTVVTQEPSFSVSPGGTVTLTCGLSSGSVSTSYYPSWYQQTPGQAPRTLIYSTNTRSSGVPDRFSGSILGNKAALTITGAQADDESDYYCVLYMGSGISYVFGTGTKVTVL
ELISA signal [7]: 0.28 | ELISA signal [8]: 0.2 | ELISA signal [9]: 0.21 | ELISA signal [10]: 0.24

B9: Fab VH5-51_IGHD5-18*01>3_IGHJ4*01 G100K/G104T G24L/S28R/G35V (H:KT LRV) & V3-4_IGLJ1*01 M94R/S96M (L:RM) (Fab, V domains shown)
VH: EVQLVQSGAEVKKPGESLKISCKLSGYRFTSYWIVWVRQMPGKGLEWMGIIYPGDSDTRYSPSFQGQVTISADKSISTAYLQWSSLKASDTAMYYCARRKYSYTYDYFDYWGQGTLVTVSS
VL: QTVVTQEPSFSVSPGGTVTLTCGLSSGSVSTSYYPSWYQQTPGQAPRTLIYSTNTRSSGVPDRFSGSILGNKAALTITGAQADDESDYYCVLYRGMGISYVFGTGTKVTVL
ELISA signal [2]: 0 | ELISA signal [3]: 0 | ELISA signal [4]: 0.003 | ELISA signal [5]: 0

B10: Fab VH5-51_IGHD5-18*01>3_IGHJ4*01 G100K/G104T G24T/S28R/G35V Y105N & V3-4_IGLJ1*01 (wildtype) (Fab, V domains shown)
VH: EVQLVQSGAEVKKPGESLKISCKTSGYRFTSYWIVWVRQMPGKGLEWMGIIYPGDSDTRYSPSFQGQVTISADKSISTAYLQWSSLKASDTAMYYCARRKYSYTNDYFDYWGQGTLVTVSS
VL: QTVVTQEPSFSVSPGGTVTLTCGLSSGSVSTSYYPSWYQQTPGQAPRTLIYSTNTRSSGVPDRFSGSILGNKAALTITGAQADDESDYYCVLYMGSGISYVFGTGTKVTVL
ELISA signal [7]: 0.25 | ELISA signal [8]: 0.19 | ELISA signal [9]: 0.21 | ELISA signal [10]: 0.18

B11: Fab VH6-1_IGHD6-13*01_IGHJ4*01 and V2-17_IGLJ2*01 (Fab, V domains shown)
VH: QVQLQQSGPGLVKPSQTLSLTCAISGDSVSSNSAAWNWIRQSPSRGLEWLGRTYYRSKWYNDYAVSVKSRITINPDTSKNQFSLQLNSVTPEDTAVYYCAREGYSSSWYDYFDYWGQGTLVTVSS
VL: SYELTQPPSVSVSPGQTARITCSGDALPKQYAYWYQQKPGQAPVLVIYKDSERPSGIPERFSGSSSGTTVTLTISGVQAEDEADYYCQSADSSGTYPVVFGGGTKLTVL
Notch1 luciferase reporter luminescence, T98G reporter cells + CHO-DLL4, 0.8 nM Fab, replicate 1 [11]: 4480 | Notch1 luciferase reporter luminescence, T98G reporter cells + CHO-DLL4, 0.8 nM Fab, replicate 2 [11]: 4540 | Notch1 luciferase reporter luminescence, T98G reporter cells + CHO-DLL4, 0.8 nM Fab, replicate 3 [11]: 3910 | Notch1 luciferase reporter luminescence, T98G reporter cells + CHO-DLL4, 0.8 nM Fab, replicate 4 [11]: 4220 | Notch1 luciferase reporter luminescence, T98G reporter cells + CHO-DLL4, 4 nM Fab, replicate 1 [11]: 4810 | Notch1 luciferase reporter luminescence, T98G reporter cells + CHO-DLL4, 4 nM Fab, replicate 2 [11]: 4920 | Notch1 luciferase reporter luminescence, T98G reporter cells + CHO-DLL4, 4 nM Fab, replicate 3 [11]: 4190 | Notch1 luciferase reporter luminescence, T98G reporter cells + CHO-DLL4, 4 nM Fab, replicate 4 [11]: 4520 | Notch1 luciferase reporter luminescence, T98G reporter cells + CHO-DLL4, 20 nM Fab, replicate 1 [11]: 5400 | Notch1 luciferase reporter luminescence, T98G reporter cells + CHO-DLL4, 20 nM Fab, replicate 2 [11]: 4990 | Notch1 luciferase reporter luminescence, T98G reporter cells + CHO-DLL4, 20 nM Fab, replicate 3 [11]: 4320 | Notch1 luciferase reporter luminescence, T98G reporter cells + CHO-DLL4, 20 nM Fab, replicate 4 [11]: 4550 | Notch1 luciferase reporter luminescence, T98G reporter cells + CHO-DLL4, 100 nM Fab, replicate 1 [11]: 4820 | Notch1 luciferase reporter luminescence, T98G reporter cells + CHO-DLL4, 100 nM Fab, replicate 2 [11]: 4810 | Notch1 luciferase reporter luminescence, T98G reporter cells + CHO-DLL4, 100 nM Fab, replicate 3 [11]: 4030 | Notch1 luciferase reporter luminescence, T98G reporter cells + CHO-DLL4, 100 nM Fab, replicate 4 [11]: 4470

B12: Fab VH3-23_IGHD2-21*01>3_IGHJ6*01 H100E/S108P/Y113G T58A & V2-13_IGLJ2*01 (Fab, V domains shown)
VH: EVQLLESGGGLVQPGGSLRLSCAASGFTFSSYAMSWVRQAPGKGLEWVSSISGSGGSAYYADSVKGRFTISRDNSKNTLYLQMNSLRAEDTAVYYCAKEEIVVVIAIPYYYYGYGMDVWGQGTLVTVSS
VL: SSELTQDPAVSVALGQTVRITCQGDSLRSYYASWYQQKPGQAPVLVIYGKNNRPSGIPDRFSGSSSGNTASLTITGAQAEDEADYYCNSRDSSGNHLVVFGGGTKLTVL
ECL signal/blank ratio (read-out not given) [12]: 3.1

B13: Fab VH3-23_IGHD2-21*01>3_IGHJ6*01 H100E/S108P/Y113G D62A & V2-13_IGLJ2*01 (Fab, V domains shown)
VH: EVQLLESGGGLVQPGGSLRLSCAASGFTFSSYAMSWVRQAPGKGLEWVSSISGSGGSTYYAASVKGRFTISRDNSKNTLYLQMNSLRAEDTAVYYCAKEEIVVVIAIPYYYYGYGMDVWGQGTLVTVSS
VL: SSELTQDPAVSVALGQTVRITCQGDSLRSYYASWYQQKPGQAPVLVIYGKNNRPSGIPDRFSGSSSGNTASLTITGAQAEDEADYYCNSRDSSGNHLVVFGGGTKLTVL
ECL signal/blank ratio (read-out not given) [12]: 3.5
